Test [1] concerns HCC70 tumor cell clusters. Put plainly: Viable cell quantification of HCC70 clusters after 6 days of IFNγ treatment. It is filed as cell-based, human. An excerpt:
(§1) FIG. 7A is a qPCR measurement of EPGN expression in HCC70 clusters. n=3 biological replicates. P-values=unpaired t-tests. […] P-values=unpaired t-tests. FIG. 7C is a quantification of individual lung metastasis areas (lungs three weeks after tail vein injection of 200,000 Ctrl-kd or Epgn-kd HCC70 clustered cells). n (# of metastases): Ctrl-kd=299, Epgn-kd=87. n (# of mice): 7 per condition. Box plot=5-95%. P-value=Mann-Whitney test. […] Line=non-linear regression. Band=95% CI. n=3 biological replicates. P-value=extra sum-of-squares F test. […] P-value=Mann-Whitney test. FIG. 7F is a quantification of internal FITC-streptavidin intensity biotin leak-in assay of HCC70 clusters after 6 days of treatment with or without 3 ng/mL IFNγ). n=60 untreated clusters, 70 IFNγ treated clusters. n=3 biological replicates. P-value=Mann-Whitney test. FIG. 7G is a TEM of HCC70 clusters after 6 days with and without IFNγ treatment (3 ng/mL). MP=microvilli-like protrusions. J=cell-cell junctions. FIG. 7H is a qPCR of (left) RAB25 and (right) CLDN7 in HCC70 clusters after 0, 3, and 6 days with and without 3 ng/mL IFNγ treatment. n=3 biological replicates. P-value=unpaired t-test. FIGS. 7I and 7J: HCC70 single cells were aggregated for 24 hrs then treated with or without 2 ng/mL IFNγ treatment. After 6 days of treatment, clusters from each condition were injected by tail vein into NSG mice, with 200,000 viable clustered cells injected per animal. 3 weeks later, lung metastases were scored by staining for the human-specific marker CD298. Sizes of individual HCC70 metastases at 3 weeks after tail vein injection. n=8 mice/condition, 217 untreated metastases, 79 IFNγ pre-treated metastases. Box plot=5-95%. P-value=Mann-Whitney test (7I). […]
Human cell lines were cultured in complete media (DMEM or RPMI with penicillin/streptomycin+10% FBS) on tissue-culture treated plates, or in non-adherent plates supplemented with 2% Matrigel (v/v). […] Human organoids were cultured with 2% (v/v) or 100% growth factor reduced Matrigel (Corning) with HuMEC Ready media (Fisher 12752010).

The subject of test [2] is MDA-MB-231. Briefly: Viable cell quantification of MDA-MB-231 after 6 days of IFNγ treatment. It is filed as cell-based, human. As to conditions: MDA-MB-231, viable cells after 6 days of treatment.
Test [3] relates to HCC70 clusters. Put plainly: pHH3 immunofluorescence (mitotic cells) and cell death in HCC70 clusters. It is filed as cell-based, human.
Test [4] deals with HCC70 clusters. Briefly: Biotin leak-in permeability assay of HCC70 clusters. Type of test: cell-based, human. Particulars: 6 days, 3 ng/mL. An excerpt:
FIG. 7A is a qPCR measurement of EPGN expression in HCC70 clusters. n=3 biological replicates. P-values=unpaired t-tests. […] P-values=unpaired t-tests. FIG. 7C is a quantification of individual lung metastasis areas (lungs three weeks after tail vein injection of 200,000 Ctrl-kd or Epgn-kd HCC70 clustered cells). n (# of metastases): Ctrl-kd=299, Epgn-kd=87. n (# of mice): 7 per condition. Box plot=5-95%. P-value=Mann-Whitney test. […] Line=non-linear regression. Band=95% CI. n=3 biological replicates. P-value=extra sum-of-squares F test. […] P-value=Mann-Whitney test. FIG. 7F is a quantification of internal FITC-streptavidin intensity biotin leak-in assay of HCC70 clusters after 6 days of treatment with or without 3 ng/mL IFNγ). n=60 untreated clusters, 70 IFNγ treated clusters. n=3 biological replicates. […] 3 weeks later, lung metastases were scored by staining for the human-specific marker CD298. […]
Phalloidin staining and DAPI were used to define membrane and nuclear areas, respectively. Using the freehand line tool in FIJI software, lines along cell-matrix (outer membrane), cell-cell (intercellular) membranes, and intracellular (cytosolic) areas were drawn and median fluorescence intensity was measured for each channel. […] To assess biotin permeability in tumor vs. stroma areas, mean FITC-streptavidin signal was measured in FIJI in equally sized squares in adjacent pure tumor or pure stroma areas. […]

The subject of test [5] is HCC70 clusters. Put plainly: TEM of HCC70 clusters with and without IFNγ. It is filed as cell-based, human. Particulars: 6 days, 3 ng/mL.
From the text: as §1, with “After 6 days of treatment, clusters from each condition were injected by tail vein into NSG mice, with 200,000 viable clustered cells injected per animal.” left out, “CD298.” for “CD298. Sizes of individual HCC70 metastases at 3 weeks after tail vein injection. n=8 mice/condition, 217 untreated metastases, 79 IFNγ pre-treated metastases. Box plot=5-95%. P-value=Mann-Whitney test (7I).”

Test [6] concerns HCC70 clusters. Briefly: qPCR of RAB25 and CLDN7 in HCC70 clusters. Type of test: cell-based, human. As to conditions: 3 ng/mL. An excerpt: FIG. 7A is a qPCR measurement of EPGN expression in HCC70 clusters. n=3 biological replicates. P-values=unpaired t-tests. […] P-values=unpaired t-tests. FIG. 7C is a quantification of individual lung metastasis areas (lungs three weeks after tail vein injection of 200,000 Ctrl-kd or Epgn-kd HCC70 clustered cells). n (# of metastases): Ctrl-kd=299, Epgn-kd=87. n (# of mice): 7 per condition. Box plot=5-95%. P-value=Mann-Whitney test. […] Line=non-linear regression. Band=95% CI. n=3 biological replicates. P-value=extra sum-of-squares F test. […] P-value=Mann-Whitney test. FIG. 7F is a quantification of internal FITC-streptavidin intensity biotin leak-in assay of HCC70 clusters after 6 days of treatment with or without 3 ng/mL IFNγ). n=60 untreated clusters, 70 IFNγ treated clusters. n=3 biological replicates. P-value=Mann-Whitney test. FIG. 7G is a TEM of HCC70 clusters after 6 days with and without IFNγ treatment (3 ng/mL). MP=microvilli-like protrusions. J=cell-cell junctions. FIG. 7H is a qPCR of (left) RAB25 and (right) CLDN7 in HCC70 clusters after 0, 3, and 6 days with and without 3 ng/mL IFNγ treatment. n=3 biological replicates. P-value=unpaired t-test. […] 3 weeks later, lung metastases were scored by staining for the human-specific marker CD298. […]
Human or mouse tumor cell clusters were pelleted and snap frozen in liquid nitrogen. […] Data were analyzed using the ΔΔCt method.
A general note: Real-time PCR tracks product formation cycle by cycle.

In test [7] the test system is MDA-MB-231. Put plainly: Biotin permeability of MDA-MB-231 clusters. As to conditions: MDA-MB-231, with or without treatment. Type of test: cell-based, human.
In test [8] the test system is HCC70 clusters. Briefly: Tail vein lung metastasis assay of IFNγ pre-treated HCC70 clusters in NSG mice. Type of test: in vivo. As to conditions: clusters pre-treated 6 days at 2 ng/mL, 3 weeks. An excerpt:
FIG. 7A is a qPCR measurement of EPGN expression in HCC70 clusters. n=3 biological replicates. P-values=unpaired t-tests. […] P-values=unpaired t-tests. FIG. 7C is a quantification of individual lung metastasis areas (lungs three weeks after tail vein injection of 200,000 Ctrl-kd or Epgn-kd HCC70 clustered cells). n (# of metastases): Ctrl-kd=299, Epgn-kd=87. n (# of mice): 7 per condition. Box plot=5-95%. P-value=Mann-Whitney test. […] Line=non-linear regression. Band=95% CI. n=3 biological replicates. P-value=extra sum-of-squares F test. […] P-value=Mann-Whitney test. FIG. 7F is a quantification of internal FITC-streptavidin intensity biotin leak-in assay of HCC70 clusters after 6 days of treatment with or without 3 ng/mL IFNγ). n=60 untreated clusters, 70 IFNγ treated clusters. n=3 biological replicates. P-value=Mann-Whitney test. […] 3 weeks later, lung metastases were scored by staining for the human-specific marker CD298. […]
For single cell vs. cluster experiments, mTomato-PyMT organoids were dissociated to single cells at day 0 using Accumax (20 minutes at 37° C.). […] DIC images were taken before injection and assessed to ensure similar number and size of clusters injected between conditions. 3 weeks after tail vein injection mice were euthanized and lungs imaged under a dissecting microscope for quantification of fluorescent (metastatic) area. […]

Where [9] appears, read: HCC70 tumor cell clusters, viable cells after 6 days of treatment.

B1: interferon gamma (protein, UniProt P01579 24-161, looked up)
Interferon gamma: QDPYVKEAENLKKYFNAGHSDVADNGTLFLGILKNWKEESDRKIMQSQIVSFYFKLFKNFKDDQSIQKSVETIKEDMNVKFFNSNKKKRDDFEKLTNYSVTDLNVQRKAIHELIQVMAELSPAAKTGKRKRSQMLFRG
notes: a cytokine FDA-approved for use in patients
Take B1: in test [1] (HCC70 clusters), the outgrowth result is on record as “markedly reduced outgrowth”. In test [1] (setting [9]), this molecule yielded an IC50 of 0.58 ng/mL and an IC75 of 0.97 ng/mL. In the test on MDA-MB-231 [2], this molecule came in with an IC50 of 4.24 ng/mL and an IC75 of 22.3 ng/mL. In addition, in the test on HCC70 clusters [3], the cell death result was “not increased cell death”. The “proliferation (% pHH3+ nuclei)” value with HCC70 clusters [3] (6 days, 3 ng/mL) was “strong suppression of proliferation”. In addition, the “intercellular permeability by biotin-leak assay” value with HCC70 clusters [4] is “increased intercellular permeability”. Moreover, the “microlumenal spacing and electron-dense junctions by TEM” value in the test with HCC70 clusters [5] was “increased microlumenal spacing and decreased electron-dense junctions”. Besides, in the test with HCC70 clusters [6], the “CLDN7 expression (qPCR)” value was “significant reduction” and the “RAB25 expression (qPCR)” value is recorded as “significant reduction”. In the test with MDA-MB-231 [7], the biotin permeability entry is “highly biotin-permeable in both the absence or presence of IFNγ treatment”. For the same molecule, in the test on HCC70 clusters [8], the “number of lung metastases” value is on record as “fewer” and the “size of lung metastases” value is “significantly smaller”.

The IC50 is the point on the concentration scale where inhibition reaches its midpoint. One may read the IC75 as the point of the concentration-response curve where the effect stands at 75%.

(Values after patent US20220257632A1, “MICROLUMENAL TARGETING OF CANCER CELLS” (Fred Hutchinson Cancer Research Center, priority 2019, published 2022).)
